From paper PMC3623637 come the findings set out here.

Substrate in data set [1]: Cc1cc(=O)oc2cc(NC(=O)[C@@H](N)CCC(=O)O)ccc12
In words: purified protein. To be noted: 50 mM Tris-HCl pH 7.5, 37°C.

Substrate in data set [2]: Cc1cc(=O)oc2cc(NC(=O)[C@@H](N)CC(=O)O)ccc12
In words: purified protein. To be noted: 50 mM Tris-HCl pH 7.5, 37°C.

B1: DNPP-1 (Caenorhabditis elegans) (protein)
chain: MAAALKPSAPEIRKAAQEFINYLNKAVTPFHATQEVKDRLLQAGFTELPESGHWDIQPTSKYFVTKNRSAILAFAVGGSYKPGSGFSIVVGHTDSPCLRVKPISHQKSDKFLQVGVSTYGGGIWRTWFDRDLSVAGLVIVKNGEKLQHKLIDVKKPVLFIPNLAIHLETDRTTFKPNTETELRPILETFAAAGINAPQKPESTGFADPRNITNNHHPQFLGLIAKEAGCQPEDIVDLDLYLYDTNKAAIVGMEDEFISGARLDNQVGTYTAISGLLESLTGESFKNDPQIRIAACFDNEEVGSDSAMGASSSFTEFVLRRLSAGGSTTAFEEAIGKSMLISADQAHATHPNYSAKHEENHRPAFHGGVVVKVNVNQRYATTSTTHAALKQVAFEAQVPLQVVVVRNDSPCGSTVGPILATKLGLQTVDVGCPQLAMHSIREFADTSSIYQATTLYSTFYERLSTVLSNMQ
What is called kcat/Km is the turnover number divided by the Michaelis constant. With B1, in “purified protein [1]”, the catalytic efficiency (kcat/Km) came to 15300 M⁻¹ s⁻¹. Moreover, in the data set “purified protein [2]”, the Km is reported as 13.58 10^-3 mM and the catalytic efficiency (kcat/Km) turned out to be 10300 M⁻¹ s⁻¹.
